# Measurements taken from article PMC11809415, “Structure of the F-tractin–F-actin complex” (The Journal of Cell Biology, 2025).
# B1: F-tractinopt–mCherry fusion [rat] / F-actin (rabbit skeletal muscle α-actin filaments) [rabbit] (parent)
# chain 1: APRRSVGELRLLFEARAASAA
# chain 2: not shown
# Variants of: B1
# Experiment: high-speed cosedimentation assay (SDS-PAGE densitometry)
# Details: with F-actin (rabbit skeletal muscle α-actin filaments) [rabbit]; 2 µM F-tractin-mCherry; high-speed sedimentation, 120,000 g; actin 0-40 µM
row,Variant,Kd
1,chain 1 F13A,> 100 µM
